The target of assay [1] is human CD3 (hCD3) naturally expressed on Jurkat cells (human) (UniProt P07766). The experiment in a line: FACS on Jurkat cells.
For assay [2] the target is unchanged. The experiment in a line: cell-based or functional assay.
Assay [3] deals with Cynomolgus macaques Claudin 18 (cynoCLDN18) on stably-transfected HEK293 cells (Cynomolgus macaques). Nature of the assay: FACS on HEK293-cynoCLDN18 cells.
The target in assay [4] is human Claudin 18.2 (hCLDN18.2) on stably-transfected HEK293 cells (human) (UniProt P56856). The experiment in a line: FACS on HEK293-hCLDN18.2 cells.
human Claudin 18.2 (hCLDN18.2) on stably-transfected HEK293 cells (human), sequence (P56856 other isoform, or with tags, fused parts or gaps limits assumed): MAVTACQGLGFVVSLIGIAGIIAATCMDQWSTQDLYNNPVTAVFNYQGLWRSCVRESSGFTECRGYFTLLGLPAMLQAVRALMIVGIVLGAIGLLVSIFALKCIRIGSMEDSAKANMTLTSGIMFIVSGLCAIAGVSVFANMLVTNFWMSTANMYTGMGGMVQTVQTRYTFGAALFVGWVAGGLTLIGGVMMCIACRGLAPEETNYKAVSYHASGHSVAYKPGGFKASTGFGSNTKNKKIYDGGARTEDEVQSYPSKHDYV
The target of assay [5] is murine Claudin 18.2 (mCLDN18.2) on stably-transfected HEK293 cells (murine) (UniProt P56857). Nature of the assay: FACS on HEK293-mCLDN18.2 cells.

human CD3 (hCD3) naturally expressed on Jurkat cells (human), sequence (P07766 23-207): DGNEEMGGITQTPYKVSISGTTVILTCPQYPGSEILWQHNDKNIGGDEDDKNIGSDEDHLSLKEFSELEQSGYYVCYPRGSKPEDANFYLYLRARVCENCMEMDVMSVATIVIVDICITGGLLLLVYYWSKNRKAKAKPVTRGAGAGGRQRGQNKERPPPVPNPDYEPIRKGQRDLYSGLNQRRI

Take Negative-IgG1AA (antibody): the Top mean fluorescence intensity (Top MFI) in assay [1] is 110 MFI; in assay [4] it was 359 MFI. The Jurkat-NFAT luciferase reporter, Fluorescence value (Max) in assay [2] amounted to 0. The MFI (Max) in assay [3] is 136 MFI; in assay [5] it was 75 MFI.

For the origin of these results see US20240010748A1.
